Source: publication PMC10228794

Target: 10.17DT SOSIP
Test: SPR
Conditions: mutated DH270 UCA antibodies were injected at 100nM; 3000–4000 RUs of 10.17DT on the sensor chip; parent: est. 43; read off a plot

Substance | response
DH270 UCA IgG (unmutated common ancestor of bnAb DH270.6) W101R | 0 RU
DH270 UCA IgG (unmutated common ancestor of bnAb DH270.6) I102V | 54 RU
DH270 UCA IgG (unmutated common ancestor of bnAb DH270.6) W101F | 36 RU
DH270 UCA IgG (unmutated common ancestor of bnAb DH270.6) Y111W | 26 RU
DH270 UCA IgG (unmutated common ancestor of bnAb DH270.6) Y111N | 0 RU
DH270 UCA IgG (unmutated common ancestor of bnAb DH270.6) Y111F | 38 RU
DH270 UCA IgG (unmutated common ancestor of bnAb DH270.6) W101Y | 15 RU
DH270 UCA IgG (unmutated common ancestor of bnAb DH270.6) W101G | 3.5 RU
DH270 UCA IgG (unmutated common ancestor of bnAb DH270.6) I102S | 34 RU
DH270 UCA IgG (unmutated common ancestor of bnAb DH270.6) I102N | 43 RU
DH270 UCA IgG (unmutated common ancestor of bnAb DH270.6) I102D | 6.5 RU
DH270 UCA IgG (unmutated common ancestor of bnAb DH270.6) I102L | 29 RU
DH270 UCA IgG (unmutated common ancestor of bnAb DH270.6) Y111H | 25 RU
